From publication PMC2615626 come the findings set out here.

The assay addresses Sulfolobus solfataricus 50S ribosomal subunit (S. solfataricus (endogenous in S. solfataricus cells)) (UniProt P55858). The assay is described as follows: co-sedimentation.
UniProt P55858, sequence (P55858 whole entry, looked up, tested part not stated): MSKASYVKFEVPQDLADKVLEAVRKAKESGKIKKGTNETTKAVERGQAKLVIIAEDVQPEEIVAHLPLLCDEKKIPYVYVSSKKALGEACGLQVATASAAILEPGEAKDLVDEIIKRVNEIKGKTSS

As usually defined, the stoichiometry N is a count of units in the complex or per binding partner. “recombinant Sulfolobus solfataricus aIF6, His-tagged (natural protein)” registered a stoichiometry N of 1 aIF6 per 50S.
